Results as given in article PMC8497999 (iScience, 2021).

Assays:
[1] = target: T1, ACAD9-His6 R532W (human, UniProt Q9H845 38-621, R532W); experiment: SEC
T1 sequence: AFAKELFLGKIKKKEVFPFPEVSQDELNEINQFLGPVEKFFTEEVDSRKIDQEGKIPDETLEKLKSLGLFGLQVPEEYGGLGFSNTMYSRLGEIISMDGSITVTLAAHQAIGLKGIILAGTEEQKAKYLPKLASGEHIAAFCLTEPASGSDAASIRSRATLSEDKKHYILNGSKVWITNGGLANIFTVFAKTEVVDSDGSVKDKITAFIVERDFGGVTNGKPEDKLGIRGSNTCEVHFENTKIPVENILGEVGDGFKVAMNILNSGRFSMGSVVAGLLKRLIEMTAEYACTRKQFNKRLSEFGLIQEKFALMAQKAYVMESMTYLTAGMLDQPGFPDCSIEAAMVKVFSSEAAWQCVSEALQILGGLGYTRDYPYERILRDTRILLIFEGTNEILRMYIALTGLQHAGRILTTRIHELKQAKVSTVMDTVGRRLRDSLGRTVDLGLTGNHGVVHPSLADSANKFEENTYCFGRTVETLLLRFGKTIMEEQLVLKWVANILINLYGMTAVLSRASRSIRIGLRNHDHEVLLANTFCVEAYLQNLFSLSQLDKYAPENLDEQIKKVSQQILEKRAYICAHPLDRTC

[2] = target: T2, ACAD9-His6 R518H (human, UniProt Q9H845 38-621, R518H); experiment: SEC
T2 sequence: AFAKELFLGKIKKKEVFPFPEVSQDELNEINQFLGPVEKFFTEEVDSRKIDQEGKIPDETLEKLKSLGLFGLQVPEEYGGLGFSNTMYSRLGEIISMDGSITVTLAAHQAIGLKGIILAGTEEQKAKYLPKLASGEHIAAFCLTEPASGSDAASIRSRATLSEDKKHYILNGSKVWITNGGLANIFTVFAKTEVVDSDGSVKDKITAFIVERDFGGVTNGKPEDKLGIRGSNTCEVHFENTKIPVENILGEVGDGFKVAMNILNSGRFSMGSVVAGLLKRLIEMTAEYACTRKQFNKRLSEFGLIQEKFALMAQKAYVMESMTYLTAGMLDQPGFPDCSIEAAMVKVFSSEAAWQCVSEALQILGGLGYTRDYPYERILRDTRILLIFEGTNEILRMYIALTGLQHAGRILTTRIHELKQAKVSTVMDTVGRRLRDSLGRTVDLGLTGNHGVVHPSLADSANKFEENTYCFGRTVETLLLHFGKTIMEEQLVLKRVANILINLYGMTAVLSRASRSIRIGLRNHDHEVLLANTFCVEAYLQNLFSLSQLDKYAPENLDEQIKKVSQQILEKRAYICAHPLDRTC

B1: His6-ECSIT (mature human mitochondrial ECSIT with N-terminal His tag) (natural protein)
chain: SSEQSLVPSPPEPRQRPTKALVPFEDLFGQAPGGERDKASFLQTVQKFAEHSVRKRGHIDFIYLALRKMREYGVERDLAVYNQLLNIFPKEVFRPRNIIQRIFVHYPRQQECGIAVLEQMENHGVMPNKETEFLLIQIFGRKSYPMLKLVRLKLWFPRFMNVNPFPVPRDLPQDPVELAMFGLRHMEPDLSARVTIYQVPLPKDSTGAADPPQPHIVGIQSPDQQAALARHNPARPVFVEGPFSLWLRNKCVYYHILRADLLPPEEREVEETPEEWNLYYPMQLDLEYVRSGWDNYEFDINEVEEGPVFAMCMAGAHDQATMAKWIQGLQETNPTLAQIPVVFRLAGSTRELQTSSAGLEEPPLPEDHQEEDDNLQRQQQGQS
B1: binds [1]; binds [2].
